Experimental data as given in publication PMC7695563.

Target: MG1113, IgG4 monoclonal anti-tissue factor pathway inhibitor (TFPI) antibody
Test: SPR

- Kd: 0.0467 nM
- koff: 0.000131 s⁻¹
- kon: 2.82e+06 M⁻¹ s⁻¹
Substance: TFPI-α (tissue factor pathway inhibitor alpha) (from UniProt P10646-1 29-304) (natural protein)
